Data as given in patent US20210032339A1 (AMPHIVENA THERAPEUTICS, published 2021).
Positions count from the first letter of the chain named. Where “and” joins values, the source holds several entries; their conditions need not be identical. Identical values can stand only once.

B1: CD33/CD3 tandem diabody 19 (bispecific antibody)
chain: DIQMTQSPSSLSASVGDRVTITCRSSTGAVTTSNYANWVQQKPGKAPKALIGGTNKRAPGVPSRFSGSLIGDKATLTISSLQPEDFATYYCALWYSNLWVFGQGTKVEIKGGSGGSQVQLVQSGAEVKKPGASVKVSCKASGYTFTSYYMHWVRQAPGQGLEWMGIINPSGGSTSYAQKFQGRVTMTRDTSTSTVYMELSSLRSEDTAVYYCARDVVPAAIDYYGMDVWGQGTTVTVSSGGSGQSVLTQPPSASGTPGQRVTISCSGSSSNIGSNTVNWYQQLPGTAPKLLIYSDNQRPSGVPDRFSGSKSGSSASLAISGLQSDDEADYYCATWDDSLNGAVFGGGTKLTVLGGSGGSEVQLVESGGGLVQPGGSLRLSCAASGFTFSTYAMNWVRQAPGKGLEWVGRIRSKYNNYATYYADSVKDRFTISRDDSKNSLYLQMNSLKTEDTAVYYCARHGNFGNSYVSYFAYWGQGTLVTVSSAAAGSHHHHHH
B2: CD33/CD3 tandem diabody 12 (bispecific antibody)
chain: DIQMTQSPSSLSASVGDRVTITCRSSTGAVTTSNYANWVQQKPGKAPKALIGGTNKRAPGVPSRFSGSLIGDKATLTISSLQPEDFATYYCALWYSNLWVFGQGTKVEIKGGSGGSQVQLVQSGAEVKKPGASVKVSCKASGYTFTSYDINWVRQAPGQGLEWMGWMNPNSGNTGFAQKFQGRVTMTRDTSTSTVYMELSSLRSEDTAVYYCARDRAVTDYYYGMDVWGQGTLVTVSSGGSGQSVLTQPPSASGTPGQRVTISCSGSRSNIGSNTVNWYQQLPGTAPKLLIYGNNQRPSGVPDRFSGSKSGTSASLAISGLQSEDEADYYCATWDDSLIGWVFGGGTKLTVLGGSGGSEVQLVESGGGLVQPGGSLRLSCAASGFTFSTYAMNWVRQAPGKGLEWVGRIRSKYNNYATYYADSVKDRFTISRDDSKNSLYLQMNSLKTEDTAVYYCARHGNFGNSYVSYFAYWGQGTLVTVSSAAAGSHHHHHH
B3: CD33/CD3 tandem diabody 14 (bispecific antibody)
chain: B2 chain with V218N, Y221F, Y222S, T312S
B4: CD33/CD3 tandem diabody 16 (bispecific antibody)
chain: B2 chain with V218N, Y222S, Y223L
B5: CD33/CD3 tandem diabody 22 (bispecific antibody)
chain: DIQMTQSPSSLSASVGDRVTITCRSSTGAVTTSNYANWVQQKPGKAPKALIGGTNKRAPGVPSRFSGSLIGDKATLTISSLQPEDFATYYCALWYSNLWVFGQGTKVEIKGGSGGSQVQLVQSGAEVKKPGSSVKVSCKASGGTFSSYGISWVRQAPGQGLEWMGGIIPIFGSAHYAQKFQGRVTITADESTSTAYMELSSLRSEDTAVYYCAREYYYDSSEWAFDIWGQGTLVTVSSGGSGQSVLTQPPSASGTPGQRVTISCSGSSSNIGSNTVKWYQQLPGTAPKLLIYSNNQRSSGVPDRFSGSKSGTSASLAISGLQSEDEADYYCAAWDDSLNGYVFGGGTKLTVLGGSGGSEVQLVESGGGLVQPGGSLRLSCAASGFTFSTYAMNWVRQAPGKGLEWVGRIRSKYNNYATYYADSVKDRFTISRDDSKNSLYLQMNSLKTEDTAVYYCARHGNFGNSYVSYFAYWGQGTLVTVSSAAAGSHHHHHH
notes: Non-covalent homodimer; also called TandAb 22
B6: CD33/CD3 tandem diabody 23 (bispecific antibody)
chain: B5 chain with A49G, D72T, K73D, A74F, Y469W
notes: Non-covalent homodimer; also called TandAb 23

Columns and labels:
human CD33 [1] = target: T1, human CD33 (human, UniProt P20138 18-259); assay: cell-based or functional assay
T1 sequence (P20138 18-259): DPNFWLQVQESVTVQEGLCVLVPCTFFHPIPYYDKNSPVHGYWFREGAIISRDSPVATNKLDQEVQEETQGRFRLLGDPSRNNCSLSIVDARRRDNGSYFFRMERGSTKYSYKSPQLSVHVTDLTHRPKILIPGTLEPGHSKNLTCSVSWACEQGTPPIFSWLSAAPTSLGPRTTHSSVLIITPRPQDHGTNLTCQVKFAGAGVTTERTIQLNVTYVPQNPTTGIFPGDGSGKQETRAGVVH

human CD33 [2] = target: T1, human CD33; assay: cell-based or functional assay; remark: listed apart in the source
human CD33 [3] = target: T1, human CD33; assay: cell-based or functional assay; remark: listed apart in the source
human CD33 [4] = target: T1, human CD33; assay: cell-based or functional assay; remark: listed apart in the source
human CD33 [5] = target: T1, human CD33; assay: cell-based or functional assay; remark: listed apart in the source
human CD3 [6] = target: T2, human CD3 (human, UniProt P07766 23-207); assay: flow cytometry, T cells
T2 construct: whole, on cells; Multi-chain complex on cells; also called hu CD3
T2 sequence (P07766 23-207): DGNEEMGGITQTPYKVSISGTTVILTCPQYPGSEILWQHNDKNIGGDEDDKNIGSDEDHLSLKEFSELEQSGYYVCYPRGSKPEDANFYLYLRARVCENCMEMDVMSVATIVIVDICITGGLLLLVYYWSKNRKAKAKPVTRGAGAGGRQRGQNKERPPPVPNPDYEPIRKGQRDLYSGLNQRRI

human CD3 [7] = target: T2, human CD3; assay: flow cytometry, human T-cells
human CD33 [8] = target: T1, human CD33; assay: flow cytometry, KG-1 cells
Protocol: (§1) Cells were incubated with 100 μL of serial dilutions of CD33/CD3 tandem diabodies. After washing three times with FACS buffer the cells were incubated with 0.1 mL of 10 μg/mL mouse monoclonal anti-His antibody in the same buffer for 45 min on ice. After a second washing cycle, the cells were incubated with 0.1 mL of 15 μg/mL FITC-conjugated goat anti-mouse IgG antibodies under the same conditions as before. As a control, cells were incubated with the anti-His IgG followed by the FITC-conjugated goat anti-mouse IgG antibodies without anti-CD33 tandem diabodies. […] The fluorescence of 1×10⁴ living cells was measured using a Beckman-Coulter FC500 MPL flow cytometer using the MXP software (Beckman-Coulter, Krefeld, Germany) or a Millipore Guava EasyCyte flow cytometer using the Incyte software (Merck Millipore, Schwalbach, Germany). Mean fluorescence intensities of the cell samples were calculated using CXP software (Beckman-Coulter, Krefeld, Germany) or Incyte software (Merck Millipore, Schwalbach, Germany). After subtracting the fluorescence intensity values of the cells stained with the secondary and tertiary reagents alone the values were used for calculation of the KD values with the equation for one-site binding (hyperbola) of the GraphPad Prism (version 6.00 for Windows, GraphPad Software, La Jolla Calif. USA). […]

human CD33 [9] = target: T1, human CD33; assay: flow cytometry, U-937 cells
Protocol: as §1

human CD33 [10] = target: T1, human CD33; assay: flow cytometry, HL-60 cells
human CD33 [11] = target: T1, human CD33; assay: flow cytometry, HL-60 cells; remark: listed apart in the source
Protocol: as §1

Binder | lysis of KG-1 cells, IC50 (human CD33 [1]) | EC50 mean, cytotoxicity on BV-173 (human CD33 [2]) [pM] | EC50 mean, cytotoxicity on CHO-CD33 (human CD33 [2]) [pM] | EC50 mean, cytotoxicity on HL-60 (human CD33 [2]) [pM] | EC50 mean, cytotoxicity on K562 (human CD33 [2]) [pM] | EC50 mean, cytotoxicity on KASUMI-1 (human CD33 [2]) [pM] | EC50 mean, cytotoxicity on KG-1 (human CD33 [2]) [pM] | EC50 mean, cytotoxicity on RPMI-8226 (human CD33 [2]) [pM] | EC50 mean, cytotoxicity on THP-1 (human CD33 [2]) [pM] | EC50 mean, cytotoxicity on U-937 (human CD33 [2]) [pM] | EC50 on HL-60 (cytotoxicity) (human CD33 [3]) [pM] | Kd (human CD3 [6]) [pM] | Kd (human CD3 [7]) [pM] | Kd (human CD33 [8]) [pM] | Kd (human CD33 [9]) [pM] | Kd (human CD33 [10]) [pM] | Kd (human CD33 [11]) [pM] | further results
B1 | ~5 pM | – | – | – | – | – | – | – | – | – | – | – | – | – | – | – | – | –
B2 | ~0.01 pM | 1.4 | 11.8 | 1.4 | 4.5 | 1.3 | 1 | 14 | 1.9 | 0.9 | – | – | – | – | – | – | – | –
B3 | – | – | – | – | – | – | – | – | – | – | 1.6 | – | – | – | – | – | – | EC50, cytotoxicity on HL-60 (human CD33 [4]): 1.6 pM and 168 pg/mL; EC50, cytotoxicity on KG-1 (human CD33 [4]): 2.6 pM and 273 pg/mL; EC50, cytotoxicity on U-937 (human CD33 [4]): 3.6 pM and 378 pg/mL; EC50, cytotoxicity, mean of HL-60, U-937, KG-1 (human CD33 [4]): 2.6 pM and 273 pg/mL
B4 | ~0.5 pM and 5 pM | 3.2 | 24 | 1.6 | 4.8 | 2.4 | 1.9 | 2.8 | 6 | 1.3 | – | – | – | – | – | – | – | EC50, calcein-release cytotoxicity on HL-60, 30 min (human CD33 [5]): 4.8 pM; EC50, calcein-release cytotoxicity on HL-60, 60 min (human CD33 [5]): 2.5 pM; EC50, calcein-release cytotoxicity on HL-60, 120 min (human CD33 [5]): 1.6 pM; EC50, calcein-release cytotoxicity on HL-60, 180 min (human CD33 [5]): 1.6 pM; EC50, calcein-release cytotoxicity on HL-60, 240 min (human CD33 [5]): 1.5 pM; EC50, calcein-release cytotoxicity on HL-60, 300 min (human CD33 [5]): 1.6 pM
B5 | – | – | – | – | – | – | – | – | – | – | 3.2 | 4100 | 4100 | 2000 | 8600 | 700 | 700 | –
B6 | – | – | – | – | – | – | – | – | – | – | 2.8 | 97200 | 97200 | 1000 | 5100 | 400 | 400 | –
